Measured values as given in patent publication US9371393B2, “Class I anti-CEA antibodies and uses thereof” (Immunomedics, Inc., priority 2009, dated 2016).

What was measured:
[1] = system: SUM1315 breast cancer model; experiment: hMN-15 pretreatment and CPT-11 in SUM1315 breast cancer model; type: in vivo; settings: single agent; dosages as in Example 5
Procedure: The effects of pre-treatment with naked hMN-15 CEA Mab given 3 days prior to CPT-11 treatment is examined in a SUM1315 breast cancer model (Kuperwasser et al., Cancer Res. 2005, 65:6130-38). CPT-11 alone, hMN-15 alone, and combination therapy of hMN-15+CPT-11 where the hMN-15 is administered 3 days prior to the CPT-11 are compared. Dosages are as indicated in Example 5. hMN-15 alone increases median survival time by 21% under these conditions. CPT 11 alone increases survival by 76%. By contrast, the combination therapy where hMN-15 is administered 3 days prior to CPT-11 produces a median survival time increase of an additional 58% above CPT-11 alone. […] The synergistic effect of hMN-15 antibody with CPT-11 therapy is surprising.

[2] = system: RII and RI isoforms of PKA; settings: Gold 2006; Stokka et al. 2006; cited from earlier work
CEA = molecular target: T1, CEA (Homo sapiens, UniProt P06731); experiment: Competitive CEA binding against HRP-labeled murine MN-15; settings: competition with HRP-labeled murine MN-15
T1 sequence (P06731 35-676): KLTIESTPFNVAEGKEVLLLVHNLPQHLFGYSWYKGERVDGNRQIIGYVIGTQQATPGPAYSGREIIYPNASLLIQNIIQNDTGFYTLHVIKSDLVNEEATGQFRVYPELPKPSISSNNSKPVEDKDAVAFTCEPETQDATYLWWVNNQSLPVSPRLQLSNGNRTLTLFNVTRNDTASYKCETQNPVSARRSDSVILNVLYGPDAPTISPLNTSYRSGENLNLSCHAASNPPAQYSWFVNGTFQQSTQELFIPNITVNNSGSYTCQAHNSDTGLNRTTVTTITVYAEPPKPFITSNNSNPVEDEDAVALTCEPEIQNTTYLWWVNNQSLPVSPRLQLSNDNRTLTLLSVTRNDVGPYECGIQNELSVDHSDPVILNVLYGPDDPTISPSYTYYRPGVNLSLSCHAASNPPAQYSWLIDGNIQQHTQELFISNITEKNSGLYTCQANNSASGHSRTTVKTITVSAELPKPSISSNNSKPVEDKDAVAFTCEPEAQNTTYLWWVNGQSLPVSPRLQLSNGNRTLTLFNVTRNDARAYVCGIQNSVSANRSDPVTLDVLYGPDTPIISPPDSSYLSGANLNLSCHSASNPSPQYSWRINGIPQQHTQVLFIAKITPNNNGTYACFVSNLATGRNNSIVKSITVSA
Excerpt: To make a chimeric MN-15 antibody, the murine MN-15 variable region sequences were attached to human IgG1 constant region sequences, as described in Leung et al., Hybridoma 13:469 (1994). The sequences of the murine MN-15 VK (SEQ ID NO:9) and MN-15 VH (SEQ ID NO:10) used to construct the chimeric MN-15 (cMN-15) are shown in FIG. 2 and FIG. 3.

[3] = system: liver metastases of sigmoid colon cancer; experiment: Sigmoid colon cancer therapy with hMN-15 and GM-CSF, patient two; type: in vivo, human; design: blood CEA titer / CEA titer: unit not given here
Procedure: patient two is a person who is refractive to chemotherapy with 5-fluorouracil and leucovorin to reduce their metastases to the liver found at the time of removal of their sigmoid colon cancer. […] Other radiological studies appear to be normal. Immunotherapy with humanized anti-CEA IgG (hMN-15) monoclonal antibody is begun on a weekly basis for 4 weeks, at an intravenous dose of 300 mg/m^2 infused over 2 hours. One week prior to hMN-15 therapy, the patient receives 2 subcutaneous injections of 200 μg/m^2 GM-CSF, 3 days apart, and continued twice weekly during the 4 weeks of hMN-15 therapy. After these four weeks, both hMN-15 and GM-CSF are given at the same doses every other week for an additional 3 months, but the dose of GM-CSF is increased to 250 μg/m^2. Prior to each administration of the humanized anti-CEA antibody, the patient is given diphenhydramine (50 mg orally), and acetaminophen (500 mg orally).

[4] = system: TT human medullary thyroid cell line tumors; experiment: hMN-15 and DTIC in TT medullary thyroid cancer xenografts; type: in vivo, nu/nu mice; settings: at 7 weeks, DTIC 75 μg/dose, hMN-15 100 μg/dose
Procedure: Tumors are propagated in female nu/nu mice (Taconic Farms, Germantown, N.Y.) at 6-8 weeks of age by s.c. injection of 2×10^8 washed TT cells, which is propagated in tissue culture. Antibodies are injected i.v., via the lateral tail vein, into the tumor-bearing animals. Tumor size is monitored by weekly measurements of the length, width, and depth of the tumor using a caliper. Tumor volume is calculated as the product of the three measurements.
To study whether naked hMN-15 can add to the efficacy of DTIC, TT bearing nude mice are given DTIC (75 μg/dose) in combination with a course of treatment of the unlabeled MAb. DTIC is administered for 3 consecutive days at 75 μg/dose as one course, beginning 2 days after s.c. injection of TT cells. hMN-15 MAb treatment is initiated 3 days prior to the first dose of DTIC, at 100 μg/dose/day for 5 days in the first two weeks, then twice weekly.

[5] = system: liver and lung metastases of colon cancer; experiment: Combined immunotherapy and chemotherapy of metastatic colon cancer, patient one; type: in vivo, human; design: blood CEA titer: unit not given here
Procedure: patient one is a person presenting with liver and lung metastases of colon cancer following resection of the primary tumor. They are placed on a combined chemotherapy and immunotherapy protocol based on the Gramont schedule (de Gramont et al., J Clin Oncol. 2000, 18:2938-47), but with the addition of humanized anti-CEA monoclonal antibody IgG1 (hMN-15). Prior to infusions of the antibody, they receive 50 mg orally of diphenhydramine and 500 mg orally of acetaminophen. They receive a 2-hr infusion of leucovorin (200 mg/m^2/day) followed by a bolus of 5-fluorouracil (400 mg/m^2/day) and 22-hour continuous infusion of 5-fluorouracil (600 mg/m^2/day) for 2 consecutive days every 2 weeks, together with oxaliplatin at 85 mg/m^2 as a 2-hr infusion in 250 mol of dextrose 5%, concurrent with leukovorin on day 1 (FOLFOX4 schedule). The patient also receives anti-emetic prophylaxis with a 5-hydroxyltryptamine-3-receptor antagonist. One week prior to this 2-week chemotherapy cycle, hMN-15 monoclonal anti-CEA antibody is infused over 2 hrs at a dose of 200 mg/m^2, and repeated each week of the 2-week chemotherapy cycle, and every week thereafter for the next month with another chemotherapy cycle. Also, a subcutaneous dose of 5 μg/kg/day of G-CSF is administered once weekly beginning with the second chemotherapy cycle, and continued at this dose for the duration of immunotherapy with hMN-15 antibody, over the next 3 months.
A total of 5 cycles of chemotherapy is performed with continued administration of hMN-15 antibody and filgrastim. Thereafter, hMN-15 and filgrastim therapy is given, at the same doses, every other week for the next 3 months, without chemotherapy. The patient is staged 2 months later, and their liver and lung metastases show shrinkage by computed tomography measurements of >80 percent of disease measured in the liver and lungs, as compared to the measurements made prior to therapy. […] They are followed over the next 6 months, and their disease appears to be stable, with no new lesions found and no increase in the disease remaining in the liver and lungs. […] The patient also experiences diarrhea, mucositis, nausea and vomiting during the chemotherapy cycles, but these are not excessive.

[6] = hMN-15 with GM-CSF, restaging after another 2 months

CCc1c2c(nc3ccc(OC(=O)N4CCC(N5CCCCC5)CC4)cc13)-c1cc3c(c(=O)n1C2)COC(=O)[C@]3(O)CC [CPT-11, irinotecan, reference compound]
increase of median survival time [1]: 76%

DLIEEAASRIVDAVIEQVKAAGAY [Ht-31]
selectivity / affinity for RII versus RI isoform of PKA [2]: greater affinity for the RII isoform of PKA

QIEYVAKQIVDYAIHQA [SuperAKAP-IS]
selectivity / affinity for RII versus RI isoform of PKA [2]: five order of magnitude higher selectivity for the RII isoform of PKA compared with the RI isoform

FEELAWKIAKMIWSDVFQQC [PV-38]
selectivity / affinity for RII versus RI isoform of PKA [2]: higher affinity for RI

LEQYANQLADQIIKEATE [RIAD]
selectivity / affinity for RII versus RI isoform of PKA [2]: higher affinity for RI

B1: cMN-15: murine MN-15 variable regions (SEQ ID NO:9, SEQ ID NO:10) attached to human IgG1 constant regions (antibody, listed as Mus sp., V domains shown)
VL: DIQLTQSPAIMSASPGEKVTMTCSASSRVSYIHWYQQKSGTSPKRWIYGTSTLASGVPARFSGSGSGTSYSLTISSMEAEDAATYYCQQWSYNPPTFGAGTKLELKR
VH: EVRLVESGGGLVQGPGSLRLSCAASGFALTDYYMSWVRQSPGKTLEWLGFIANKANGHTTDYSPSVKGRFTISRDNSQTILYLQMNTLRTEDSATYYCARDMGIRWNFDVWGQGTTVTVSS
modifications: human IgG1 constant regions
affinity for CEA compared with parent murine MN-15 (CEA): virtually identical
dissociation constant (CEA): nanomolar range

B2: hMN-15: humanized MN-15, VK SEQ ID NO:7 and VH SEQ ID NO:8, REI/KOL frameworks, human IgG1 (antibody, V domains shown)
VH: QVQLVESGGGVVQPGRSLRLSCSSSGFALTDYYMSWVRQAPGKGLEWLGFIANKANGHTTDYSPSVKGRFTISRDNSKNTLFLQMDSLRPEDTGVYFCARDMGIRWNFDVWGQGTPVTVSS
VL: DIQLTQSPSSLSASVGDRVTMTCSASSRVSYIHWYQQKPGKAPKRWIYGTSTLASGVPARFSGSGSGTDFTFTISSLQPEDIATYYCQQWSYNPPTFGQGTKVEIKR
modifications: human IgG1 constant regions
affinity for CEA compared with parent murine MN-15 (CEA): virtually identical
dissociation constant (CEA): nanomolar range
decrease of sum of the diameters of the measurable tumors in the liver ([3]; hMN-15 300 mg/m^2 with GM-CSF, first restaging): 40%
adverse reactions ([3]; hMN-15 with GM-CSF): no adverse reactions to the therapy
blood CEA titer ([3]; hMN-15 with GM-CSF, first restaging, at presentation 34 ng/mol): 18
CEA titer [3, 6]: 10
tumor decrease over the pre-therapy baseline [3, 6]: > 65%
mice with no palpable tumor ([4]; untreated 0/10): 0/10
mean tumor volume ([4]; untreated 1.578+0.959): 0.899+0.545 cm^3
increase of median survival time [1]: 21%
shrinkage of liver and lung metastases by computed tomography ([5]; hMN-15 200 mg/m^2 with FOLFOX4 schedule and G-CSF (filgrastim)): > 80%
adverse events when only immunotherapy is administered ([5]; hMN-15 and filgrastim without chemotherapy): does not experience any adverse events
predominant toxicity ([5]; hMN-15 with FOLFOX4 and filgrastim, during chemotherapy cycles): peripheral sensory neuropathy
blood CEA titer ([5]; hMN-15 with FOLFOX4 and filgrastim, pre-therapy level 63 ng/mol): 9
